Assay results as given in the DeepSol protein solubility set.

Test: soluble on expression in E. coli; label from the status in PepcDB or PDB records

For “MSLKFVGLVGSNAEQSYNRKLLEYIRKQFKLKFELELLEIDEVPMFNQDQSWKDSFQLRLLYNKIIRADGVIIATPEHNHTITAALKSVLEWLSCEVHPFENKPVMIVGASYYDQGTSRAQVHLRKILDAPGVNAYTLPGNEFLLGKAKEAFDDNGNIINQGTVDFLETCLDNFMSYVGVVSKLQKPKPIEPEDLDCNHPIATTITEVDPDDPEWVEKVAEITGAVSGDAYVKLDHGILTVDQINMFLKAMPFELTYADDNNQFLYYNNAHQDPDTMYAKRIPEQSGNRLSTVHNSLPAGRMKNVEWVIGTLRNGNQEYVRTLIPSPNPAVLNTHNYQAMYYDDGSFAGINEIVFNFKPWLDWYLQTTGQRLVGGEGHHHHHH”, which “soluble on expression in E. coli” value is on record?
Its value is “soluble”.

Which “soluble on expression in E. coli” value does the source give for “MSLKIAITGASGFVGSHLSSQFGGSHTLLPLGRRELSDPTKLSSLLEGVDWIINLAGAPIIAKWSESYKKVLYSSRIETTRSLLLALKECPTKPSLFTSTSAIGIYDNQGTYAEGDLALAQDFLGKLAKDWEEEALKAQDLGIRTVVFRFGVVLGKGGGMMEKLRLPFSLGLGGVIGDGKQKFSWIHLHDIAKAMEFAWSTPSLSGIYNLTAPSPTTNEAFTKLYGSLIHRPTLLPVPLWALQILFGEGAKVLSDGQAAIPERLLQAGFEFEYPTLEKALKEIISEGHHHHHH” here?
The value was “soluble”.

Which “soluble on expression in E. coli” value does the source give for “MSLKIGIVGPGAIGLLYTFYLQKSNQDVTLFTRTAKQAEELNETGVTCIRDGRCETVYPPVLPIESMVAQNLDYIFISVKQYHIDDVLPFVEGASSLIFLQNGMSHLQKMLKIGSENIAVGIVEHGAKKEGGHIVHHTGIGVTKFGVVCGQSIHFKKIFRYFPVTYFPVQIETDWEEIMHKKLVVNVCINPLTALLGVKNGELITNRFFYQMMEQVFQEVAFLIRGEKEMVWQMVRNVCEGTSRNTSSMLADVRANRQTEINAIVGYVLEEAKKQQLPVPTLQFLFDAIKGLETREGHHHHHH” here?
Its value is “not soluble”.

Which “soluble on expression in E. coli” value does the source give for “MSLKIHCLKLKNKELNKEVAFYLTSIIRQALKNTEYKDQISSTVLPDIKIKLPIDSRGTPDWNYMERYRDREGHHHHHH” here?
Its value is “soluble”.

For “MSLKIIDGNIASPLGFSADGLHAGFKKRKKDFGWIVSEVPASVAGVYTTNKVIAAPLIVTRESVKKAQKMQALVVNSGVANSCTGLQGMEDAYTMQKWTATKLKIAPELVGVASTGVIGDLMPMDTLQKGLSKLVVNGNSDDFAQAILTTDTKVKTVAVTEQFGRDEVTMAGVAKGSGMIHPNMATMLAFITCDAVISSETLQLALSQNVETTFNQITVDGDTSTNDMVLVLSNGCTLNKEILPDTPEFDKFSAMLHFVMQELAKKIAKDGEGATKLIEVEVINAPNSLDACMMAKSVVGSSLVKTAIFGEDPNWGRILAAVGYAGVDVPVDNIDIYLADIPVMLASSPVDFDEEDMQDVMRADTIKIIVDLHAGDSVGKAWGCDLSYDYVKINALYRTEGHHHHHH”, which “soluble on expression in E. coli” value is on record?
The value was “soluble”.

Which “soluble on expression in E. coli” value does the source give for “MSLKIKHEHIRMAMNAWAHPDGEKVPAAEITRAYFELGMTFPELYDDSHPEALARNTQKIFRWVEKDTPDAVEKIQALLPAIEKSMPPLLVARMRSHSSAYFRELVETRERLVRDADDFVAVAIAGFNQMNRGGPAGNIVAVHEGHHHHHH” here?
Its value is “soluble”.

With “MSLKIKVGLIFSGIACLFLTACVNQVKQNTTFENTLTQKYCGDDFFNQNLEKIKKNDDVIYTGLNAGLIARNCGDFNKSNVFFDAVEESYKYDVDLENVSPKAAKFIGTTLLNDNIVDYDGSLYERIMVNIYKALNYMEEDDYENARVEFNRVLMRQDKAKEYFAKEIEKNRADLDKAKEDKNYDKNMNENSKVIEAQYDNLFKEFDTTKNFINPYATYLASIFFFMDKDYRKAADLFREVAIIYPKNKTIKKEAKIFKEYATKIKVKKAKKYVFVVYENGFGVVKDEFALTLPFIVDKKIISTNIALQTLKKREASFANLNINGQNTNDFVDLDNIVATEFKINMPAMIAKALAQTIIKTTLNVAVANNDSTGGWLSLATAVATAATNKADVRSWRGLPKSIAIATIENDGNLEIKDPQGNILFQKSLDKNKNALVIVRSFAPYLPASVAIMEKEGHHHHHH” as the sequence, how does the “soluble on expression in E. coli” value read?
The value was “not soluble”.

Which “soluble on expression in E. coli” value does the source give for “MSLKILILGGTRFLGRAFVEKALNRGYEVTLFNRGTNKEIFPEVEQLIGDRNGDVSSLENRKWDVVVDTCGFSPHHIRNVGEVLKDNIEHYIFISSLSVYKDWIPHHIKEDYILQPEPTAEQIKAVENGEVSPYEYYGALKVLCEKEAEKYWPGRVLHVRAGLLSGMFDYTDRLPYWIGRVAKGGEVLVPGRKDRPVQIVDIKDVANWGLNMAENNKAGIFNVTGPNYDLTMEELLNTCKKVTNSDAEFVWIEESFMNEHKVQPWTEMPLWIPETFSLEGETKPWKGGFSISINSAIKAGLTFRRLEDTVMDVYVWMKSIEEWELKAGISGEREKELLEKWYQEGHHHHHH” here?
The value was “soluble”.

Which “soluble on expression in E. coli” value does the source give for “MSLKIMIVEDDRIQATSLKLKLRQLGLDDVILAENGFAALELCNKVGIDLMFCDIRMPQMDGISLLSQLSLQAPKLGVVILSAVEDTILELTHNMCSLAGFAYVDRLPKPYEVEDLQRVVEGFQKQTEPETSHKPAITLTCDEIEQAFLHDHIFNYYQPQFDFRSGAMVGVEALVRYEHPTHGMLSPAVFLPLIEQCGLHEKLFLTVLEKSVSALASIGADLQLSVNISQRNLQHSICDPILAICERYGFPASKLTLEMTEHEVYNGTPTSLANLARLRMYGVGLSIDDFGTGYASLGQLAQLPFTELKIDRSFVHDLATNYKHQQLTNMCLLLAQSLGLHCVVEGVENEETWQYLRQLGVDTCQGYYAAKPMPIAQLSELYTKNRRQCLGEGHHHHHH” here?
Its value is “soluble”.

For “MSLKITAADVVVTSPGRNFVTLRITTEDGLTGLGDATLNGRELAVEAYLREHVAPLLLGRDAHAVEDTWQYLYRGAYWRRGPVTMAAVAAVDMALWDIKGKAAGMPVYQLLGGACRTGALAYGHASGRDIPELLDSVREHLADGFRAVRIQSGIPGLDSVYGVAASAAGDGDRYDYEPARRTGAAHPRPTEETWDTRAYLRHMPTVFEAVRHTFGPELPLLHDGHHRMTPIQAARLGKDLEPYDLFWLEDATPGEDQGALRLIREHTTTPLAIGEVFNSVHDYTTLLQERLIDYVRSAVTHTGGITAVRKLLDMAAVYGIKSGMHGPTDISPVGMAAALHLDLAVHNFGIQEYMRHAPDTLEVFRTSYRFEDGLLHPGEAPGLGVELDDGAAARFPYEPAYLPVNRLSDGTVHDWEGHHHHHH”, which “soluble on expression in E. coli” value is on record?
Its value is “not soluble”.

Which “soluble on expression in E. coli” value does the source give for “MSLKIYGVYRSRASRPLWLLAELDLPFEHVPVIQANRVAHPHGPEAPLNTASAAYLAVNPLGQIPCLEEEGLILTESLAITLHIARTQGGQLGPRSEPEDALMVSWSLFAATAVEPPALEIQLIQRSGGGTSPEGQAAIAIAAERLRRPLARLERHFAAEDYLVGGRFTVADLNLAETLRYGQAHPALLEPFPAVAAWLDRCQSRPAFRLMMERRAAEGHHHHHH” here?
Its value is “soluble”.

For “MSLKKIANELGLSSTTVSRALNGYDDVAAETRERIIDAAKRLGYQPNSLARRLKMGRTDAIALAYPSRPRVLNNSTFLEMISWIGIELGKRGLDLLLIPDEPGEKYQSLIHLVETRRVDALIVAHTQPEDFRLQYLQKQNFPFLALGRSHLPKPYAWFDFDNHAGASLAVKRLLELGHQRIAFVSTDARISYVDQRLQGYVQTMSEAGLMPLAGYLQKADPTRPGGYLAASRLLALEVPPTAIITDCNMLGDGVASALDKAGLLGGEGISLIAYDGLPDDSLLDIAVTPIVQNTRTSVGKQIASMICDLLGGKDPKELQVLWQPEIGEGETEGHHHHHH”, which “soluble on expression in E. coli” value is on record?
Its value is “soluble”.

For “MSLKKILIIDQQDFSRIELKNFLDSEYLVIESKNEKEALEQIDHHHPDLVILDMDIIGENSPNLCLKLKRSKGLKNVPLILLFSSEHKEAIVNGLHSGADDYLTKPFNRNDLLSRIEIHLRTQNYYSDLRKNDLLMLLELTETISVTRNPRRILSIIVERLIKTIDVSRCSIIGINDFGELLVLASSDLPENQEIKLDLKKYPEIEKALETQRPVVLQDITNSALMKPVKKHIEALSDNAVFVVPIIKKQNVIGTFFLRTACLQKGGITDRIFKLCQVIASISGNALENAIIFESMETNKKLLEDLSVRDSLTKLYNHQHYHSRLEDEFSRAQRYNLDLSCIFLDIDNFKNINDRYGHLAGDMVLRQIARLISQVIRKSDISARYGGEEFAICLPNTGGVAANELAERLLVMIRELSIQQLKGEHVTVSIGTSTYSNHNVASYSELLHLADDAMYEAKKSGKNRFCCSTAMEGHHHHHH”, which “soluble on expression in E. coli” value is on record?
The value was “soluble”.

With “MSLKKLITANDIREAHARGEQAMSVVLRASIITPEAREVADLLGFTITECDESIPVTASVPASVPADKTESQRIRETIIAQLPEGQFTESLVAQLMEKVMKEKQSLEQGAMQPSFKSVTGKGGIKVIDGSSVKFGRFDGAEPHCVGLTDLVTGDDGSSMAAGFMQWENAFFPWTLNYDEIDMVLEGELHVRHEGQTMIAKAGDVMFIPKGSSIEFGTTSSVKFLYVAWPANWQSLEGGSHHHHHH” as the sequence, how does the “soluble on expression in E. coli” value read?
Its value is “soluble”.

Which “soluble on expression in E. coli” value does the source give for “MSLKKMSIKVPGKLFFAGEYSVTKEGNLALITTIETNFEVRISATTGKSIFKTNVGLSDFEFSLSKIEFTKENPWNFALTALKNTLSAADSFEKKSVSKILSSSPEISLEIVSDLGFGENKKGYGSSASVVCGLVNAVNQFFDFQLSLEKRFEIAAKTHFEVQGSGSMGDIAAIMYGGSVFYQNHKRVIPLEIPWATYVVQTGKAAKTSEKIKIKLSDEFYQASNELVIELATAIDIQDFALFKEKLSENQLLLLENIPEGYMTKELAIALNLLNSYPEFAAKISGAGFGENIILFAQNTQAIAEVQNKLSEYGINLEKFKVAQKNNEGHHHHHH” here?
Its value is “soluble”.

With “MSLKLFPQFDGISLKDRFFLLESFKVDVLANNVYYTESSLVPFLSKMKGVLARDGNIKHYLAEGKRICVLGDVHGSPMDVSAFYDLCMLKDVQLQCFQEVGDDRGSQFTMDLSSVYVFLGDYVDRGSRGLACVLFIYVLKYLYPRNVLLLRGNHECDAMNRIYGFTKEIYKYYGSHSPIYQAIQDTFAAIPYFFRLIYLPQSLCRALERFCNRVIPSASSSTRWTNSEIMCLASMVSSVTSWAGQAGATNEAKLDDLADSQEAHMLKCRLEEESLTIFCCHGGPPCVYTEYGRQLDLYLGIDSYENILQRSLTIVDPLAGELTWNDPAPHRFKSPSTLYEPSQRRLGYRYSYDLFRTWCKHTGVDLVLRGHEVALDGVHQDFQYAFEPKQLGGPNQELEYWFSVSTLRETPRHFTVFSSSFYEHLTNHGAAAIIRFEVPVDGVAPALVIRCFTLSEGHHHHHH” as the sequence, how does the “soluble on expression in E. coli” value read?
Its value is “not soluble”.

For “MSLKLHKGIKEYECKECHRRFAQKVNMLKHCKRHTGIKDFMCELCGKTFSERNTMETHKLIHTVGKQWTCSVCDKKYVTEYMLQKHVQLTHDKVEAQSCQLCGTKVSTRASMSRHMRRKHPEVLAVRIDEGHHHHHH”, which “soluble on expression in E. coli” value is on record?
The value was “soluble”.

For “MSLKLIVKIGLIVLLLMFNYQGVDADVVSSAIDRYATTTEHQDNMASDHGTLDTMSFTHSLLTGQQQVLAKLMPDDLRIRRAEELQQNFLKILIGRFSLREEILATDRAKIFPSNPIHCVSPACHYFVFTLRRILIEGHHHHHH”, which “soluble on expression in E. coli” value is on record?
The value was “not soluble”.

For “MSLKMKPPVEKNEYYDVTFEDLTHEGAGVAKVQGFPIFVPNALPEEKAQIKVTRVKKGFAFGRLIELKEESPHRTDAPCPIYKQCGGCQLQHMTYEGQLLFKQKQVKDVLERIGKLDLSKVTVHPTLGMEDPWNYRNKAQVPVGEREGGLVAGFYQQRSHDIIDMSACLIQQSKNDEAVQAVKDICANYGVKAYNEERHKGWLRHIMVRYGVVTGEMMIVFITRTSDFPHKAKIIEDITAQFPHVKSIVQNINPNKTNVIFGNETNVIWGEEYIYDLIGDVKFAISARSFYQVNPEQTKVLYDKALEYAELQGEETVIDAYCGIGTISLFLAKQAKKVYGVEIVPEAIEDAKRNAELNGNTNAEFAVGEAETVIPKWYEEGITADTLVVDPPRKGCDEALLRTIVEMKPKRVVYVSCNPGTLARDLRVLEDGGYVTREVQPVDMFPHTNHVECCVLIKLKEEGHHHHHH”, which “soluble on expression in E. coli” value is on record?
The value was “soluble”.
